From the DeepSol protein solubility set

assay: soluble on expression in E. coli; label from the status in PepcDB or PDB records

Row | Sequence | soluble on expression in E. coli
1 | MAHHHHHHMLKHPQAALLFVHNSSDLFQNDTLGVLRNKTKIQNKKKISRFKIQSSEERHTDGGLHYDLTPENVEKVLNLIRPKLQIDNGDVELVDIKNNDLYIKLLGNCVTCSSNSVTVSQVIKKTLKMYIRNEKNEEPNVIITNFDEINEENIHSCLSDLKPYFDFLSKWHTGGGTPLGVMLGGRGSYSKEKRPFKGGDPSHSISSTPPPLKRAKRSTV | not soluble
2 | MSLSSKLRLQLDAHASIHENVRRLLQFTTSIMEANEEGIRKDIDSEFLHDFRVAIRRSRSILRLLNGVFDPEKTAWMLAGLRELGKRTNDLRDSDVYLLRREEYTSLLPPSLRPALDPFFSDLEADKRLHHRQFCRYLTGREYSGFMTSLKEFIAEGELPDPETAPLAAEPTGDVAAKTIRKALKKVLVHGRRTGSETSDAELHELRIDCKKLRYLLEFFASLFPPKATAQVLRQMKTLQDNLGTFVDLTVQMEFLQSRLETIPADRGGISEAAAIGGLLTTLYRKREKVREHFHEIFSGFDSNETGELFDELLTGLAEGHHHHHH | soluble
3 | MGSDKIHHHHHHMKGKHKIVVKNNRLHYEFEIKRNITIIKGDSATGKTTLINMIRQFANLGNASGIEIECDAPCTVLEGNLWQMLLKNLSGNIIFIDEENQFIRQQEFAELVKASDNYFVIITRENLYNLPYSVEEIYGLYSSGKYQNTKQIYQEMYHIYPLNQDLSCKPDKIIVEDTNSGYEYFKAISKEKNIVCESAGGKTKIFAMLEQLKAETESICVIADGAAIGPEMDALYKMSVEKGNIKLYLPESFEWIILSSELLEDKEIKDIIDKPENYIESQEYFSWERFFTKLLVDKTAGTYLKYQKGKLNPTYLHEKNKNIILKNIKNSIDF | not soluble
4 | MKIHKTLTPWAAALLLASTAWPALAEVSTVRLAKQFGIGYLPLTLVEELDLLEKHAAASGHEITTEWLRFTGGSGMNEALLSGNLDLAAGGTGPLFTIWARTRENLKIKGVAALASMPLHLMTSNPEVKSLADFSQGDKIALPAVKTSIQAVTLQMASKQAFGPDKATAMDAFTVSMGHPDAQLALTGGQSEVTAHFGSPPFQNLEAKVEGIHKVLDSYDVLGGSHTFTVVWAADKFISENPEITKAFMAALEESMELISTNPEKAAEIWMAAERSPLSREEVVALIRDEQTVWTTTPERTLPYVEFLSESGLIKTSAEDWSEIFFDTMSGKEGS | not soluble
5 | SYYHHHHHHLESTSLYKKAGLMSTPLQGIKVLDFTGVQSGPSCTQMLAWFGADVIKIERPGVGDVTRHQLRDIPDIDALYFTMLNSNKRSIELNTKTAEGKEVMEKLIREADILVENFHPGAIDHMGFTWEHIQEINPRLIFGSIKGFDECSPYVNVKAYENVAQAAGGAASTTGFWDGPPLVSAAALGDSNTGMHLLIGLLAALLHREKTGRGQRVTMSMQDAVLNLCRVKLRDQQRLDKLGYLEEYPQYPNGTFGDAVPRGGNAGGGGQPGWILKCKGWETDPNAYIYFTIQEQNWENTCKAIGKPEWITDPAYSTAHARQPHIFDIFAEIEKYTVTIDKHEAVAYLTQFDIPCAPVLSMKEISLDPSLRQSGSVVEVEQPLRGKYLTVGCPMKFSAFTPDIKAAPLLGEHTAAVLQELGYSDDEIAAMKQNHAI | soluble
6 | MGSDKIHHHHHHYGAQAYGMGGGGGGYNRPMNSYGNGYNNGGGFNNYGNGGGFGGNNYNNGPPPFDGGYNRPYGGGGGGGYGRPQGYVPPPPPPPTQPEPEPEPRPEPQPEPQPEPQPEPQPEPQPEPHPEPAPEPIVKPYNSYAQPHNSYVRYGGK | not soluble
7 | MLVLYLVFKKFLFKPVMKVINAREDMIKQQFDDAKKSQEEADALKASYDEKLESAKTEADEIIVNARNRAQEEHEAALEKTRKETEVMLEKAKADIATEKEKATEAAQADIARLALIAARKIVKTGDAHDAGSSK | not soluble
8 | MKLVTGFARIRKPSRPIEFGRWPNRSMSVRVPGAMPLASMNLAVGQSVRIGQRPNSSPSSLPNISFAKIRRWPSRRWLRHQGLHGPIDFGRWPNETMSIRVPGAMPLASMKLAVGQSTALAKGQTQHSQRATPLVLQRTTHTLANGQMQPIITPKRIVHQTRSHIVGGSRDIRLGMSLPGDAPAGSRCRQRRFHDALGRPKRSRTLVANRTCPGWDVASSQTWTSPAWPSPQSPSPDGFGSCQTNKDLTSRGCGG | not soluble
9 | MGHHHHHHSHGTRQELSGNTKSRESIQEPRSDYYNHEVPDIDLSDCEFPHVIEIYDFPQEFRTEDLLRVFCSYQKKGFDIKWVDDTHALGVFSSPITARDALGIKHTMVKIRPLSQATRAAKAKARAYAEFLQPAKERPETSAALARRLVISALGVRSKQSKTEREAELKKLQEARERKRLEAKQREDIWEGRDQSTV | soluble
10 | MASWSHPQFEKGALEDPRSLYDLPPYGDATLLYFSDLHGQAFPHYFMEPPNLIAPKPLMGRPGYLTGEAILRYYGVERGTPLAYLLSYVDFVELARTFGPIGGMGALTALIRDQKARVEAEGGKALVLDGGDTWTNSGLSLLTRGEAVVRWQNLVGVDHMVSHWEWTLGRERVEELLGLFRGEFLSYNIVDDLFGDPLFPAYRIHRVGPYALAVVGASYPYVKVSHPESFTEGLSFALDERRLQEAVDKARAEGANAVVLLSHNGMQLDAALAERIRGIDLILSGHTHDLTPRPWRVGKTWIVAGSAAGKALMRVDLKLWKGGIANLRVRVLPVLAEHLPKAEDVEAFLKAQLAPHQDHLFTPLAVSETLLYKRDTLYSTWDQLVGEAVKAIYPEVEVVFSPAVRWGTTILPGQAITWDHLYAYTGFTYPELYLFYLRGAQIKAVLEDIASNVFTSDPFYQQGGDVSRVFGLRYVLDPDAPTGERVREVEVGGRPLDPNRRYLAAAYGGRLQRVGEAKPGYEPRPIYEVLAEYLRSVGRVRVRPEPNVKVIGRNYRLPEVTG | soluble
11 | MPEFTNNPVAECDTVFSEKDGKKIVDFIIYPAKNGDQWVGTAVEAKSMGFGGELKVLVGFDAEGKIYNYSLLSHAETPGLGSKAADWFKEGNKGSIKGMNPGEQPLTVSKDGGQVDAITASTITSRAFLNAVNAAYGAYKGDGGANGTTGASQKAVQKSETAIVDSVVIKLEHHHHHH | soluble
12 | MGSDKIHHHHHHMTQKTLPPLNWLRAFEVSARYLNFTHAAEELHLTQGAVSQQIRHLESQLGVALFKRLPRGLGLTEEGQSYLPVVQDAISRLAVGTNEIFGQRQRRPLKVRGSLSFLHFWLAPRLADFRRSHPQVDIRYISNLWVKELDAEDDLEIRWGSGQWAGVEAQRLTRDMLVPVCAPALLAGCPLREPRDLARVPLLHVLGYEEGWGYWLERVGADQVDSSSGLQFDTLVSTLRMAELGLGVALARSSLVEDLLQEGRLVAPFAQRIEASESFFLVRGLGEALSPDAQAFSHWLVAMAHR | not soluble
13 | MSLTTQLGLPDDIQACLFDLDGVVTRTAVVHAAAWKATFDTFLRERDGADFRPFTDSDYDQYVDGRPRADGVRSFLASRGVELPEGTPDDPPDARTVNGVGNRKNELLLEKIRTDGVEPYEGTLRYIDAVRAAGLATAIVSSSANTRDVLRSIDAERLFDVRIDGVVARERKLPGKPHPDTFLAAARDLGVEASRAAVFEDALAGMDAGRSGHFGYVVGVDRVGQTDALYAHGADRVVKDLAELGDHAEGHHHHHH | soluble
14 | MGSDKIHHHHHHMDFDTGRRIDRRAIPADAVEGTWTASDGHPIRRIDWPGHSEPDAPTAPRGSLLFLPGRGDFYEKYLESLDYWHCEGWRVTALDWRGQAGSGRLSSDPMTGHVPDFGLWLDDLGAFWTDWVRDTPGPHVVVGHSMGGHLVLRALAERRIDPAAVVLSAPMLGFLTPGPNRVLHRVAEFMCRIGDPERSAWKSSEKPGATTAARNTLLTHDEARYGDETHWKTVRPELAMGPGSWRWVERAYASMLVLDRPGLLEAVDVPVLLLAARHDGLVSWRAIERAARRLPRAQLMTWGREARHELLREADPVRDKVMHAIDDFLDRLAPPTGEDAPA | not soluble
15 | EIEKGGCGDPGIPAYGKRTGSSFLHGDTLTFECPAAFELVGERVITCQQNNQWSGNKPSC | soluble
16 | MNNISIPFEKLGNAKKVGIQLPDGLKRRAIEIAQLIEDRGYDVVISGETSFGACDIDLSILEVVDVLLHFAHTPILKDERVVYVPYFIEYNPKIDLKVDERRIALIATAQYVHKLPEVAEWLRGKGYEVEIGSPRGRVVYPGQVLGCNYSVLRGSNADAVVFIGDGLFHATGAAMYTKKKVYAYNPLSGELKEVDARNFEKKRYLEVSKCVGKSKAGILVSSKPGQRRLRLAEKLKKIGRENGLFCSIIYLNNVRAEELYNLPFDFYVNTACPRIAYDDGARFEKPVISPQEFELLLGLRESIAMDEIEF | not soluble
17 | HHSVEAPQVKKRMGKFPFVKASKKESEEISKQLHNALDIELPSESTVWLRDKDVWLFPDALEPMIGELRFSRMGIKIAEAHKNGYRWQHQVATALATGAESNAIELTIEEAREWYMGRDVRPQIIPEGLKTGKGEVLVKYQGAIIGLGKWVSNRIKNGLPRELVRDKNLF | not soluble
18 | MSDVNAPAGLAALEARLQQDLAWLDLPAKPWVKPRTNAGQAVLDVAIIGGGMAGLALAAELRHLGVAAVIFDQSPAGFEGPWATTARMETLRSPKQLTGPALGLPALTFRAWYEAQFGADGWAALDKIPRLQWAEYLRWYRKALALDVRNEHRVSRVAPRTDGLVELDIMTPGQTRFMLARHVVLATGRDGLGGPWVPDFARQLPDHLWTHSAAGLQDDWFEGRRVAVIGGGASAMDSAATALEAGAQRVDLLIRRAELPRVNKGKGVGNPGMVHGYWRLPDIWKWRIRHYLNRQQVPPPRGSTLRVSRSGRARFLLDNPVLAVEANPAGGVWLQTSKARVEADFVVFATGFRTDFELRPEFAPFSSHIRVWQDRFEAPEGEADSELAVLPDLGNCFEFQEKTPGACPGLNHIHCFSYPAALSYGAVSGDIPAISEGSKRLAHALIGLLFNEDIALHFESMRSYAEPELLGDEWVASEPGTEELRPLEHHHHHH | not soluble
19 | MGSDKIHHHHHHMDERWMVMKITIVFENHAGYRKGLIGYHGFSALVEANGYRVLVDTGTDGKVLLNNMSELGISPDDIDALFITHGHYDHTGGLRELLSARTEALDIYAHPGIFKRRLALKPKKREIGIPFTREELEELGGKFILSDKSKEILPGFISSGEIERITWDRAVGYFPDGSKDPVRDDMALIVEEGSKSVVITGCGHSGIINIAIHSKKLTNNRIAALIGGFHLKGIERSLLDEAVKKLRELEIEKLYPGHCTGIEEFAYLWSKFGNVEGIHVGKEIKI | not soluble
20 | MTTFERIKKLSAKKGITISQLTSELEMGENSIYRWKTQKPALDKLQKVADYFNVSIDYLLGRTDNPQIDSDIPPEATTLAAHIDPAATEEDMKKILEYIDFIQQKYK | not soluble
21 | GAMASSVLVTQEPEIELPREPRPNEECLQILGNAEKGAKFLSDAEIIQLVNAKHIPAYKLETLIETHERGVSIRRQLLSKKLSEPSSLQYLPYRDYNYSLVMGACCENVIGYMPIPVGVAGPLCLDEKEFQVPMATTEGCLVASTNRGCRAIGLGGGASSRVLADGMTRGPVVRLPRACDSAEVKAWLETSEGFAVIKEAFDSTSRFARLQKLHTSIAGRNLYIRFQSRSGDAMGMNMISKGTEKALSKLHEYFPEMQILAVSGNYCTDKKPAAINWIEGRGKSVVCEAVIPAKVVREVLKTTTEAMIEVNINKNLVGSAMAGSIGGYNAHAANIVTAIYIACGQDAAQNVGSSNCITLMEASGPTNEDLYISCTMPSIEIGTVGGGTNLLPQQACLQMLGVQGACKDNPGENARQLARIVCGTVMAGELSLMAALAAGHLVKSHMIHNRSKINLQDLQGACTKKTA | soluble
